Experimental data from paper PMC7190626.

B1: α1D-adrenergic receptor (α1D-AR): N65Q (protein)
parent chain: MTFRDLLSVSFEGPRPDSSAGGSSAGGGGGSAGGAAPSEGPAVGGVPGGAGGGGGVVGAGSGEDNRSSAGEPGSAGAGGDVNGTAAVGGLVVSAQGVGVGVFLAAFILMAVAGNLLVILSVACNRHLQTVTNYFIVNLAVADLLLSATVLPFSATMEVLGFWAFGRAFCDVWAAVDVLCCTASILSLCTISVDRYVGVRHSLKYPAIMTERKAAAILALLWVVALVVSVGPLLGWKEPVPPDERFCGITEEAGYAVFSSVCSFYLPMAVIVVMYCRVYVVARSTTRSLEAGVKRERGKASEVVLRIHCRGAATGADGAHGMRSAKGHTFRSSLSVRLLKFSREKKAAKTLAIVVGVFVLCWFPFFFVLPLGSLFPQLKPSEGVFKVIFWLGYFNSCVNPLIYPCSSREFKRAFLRLLRCQCRRRRRRRPLWRVYGHHWRASTSGLRQDCAPSSGDAPPGAPLALTALPDPDPEPPGTPEMQAPVASRRKPPSAFREWRLLGPFRRPTTQLRAKVSSLSHKIRAGGAQRAEAACAQRSEVEAVSLGVPHEVAEGATCQAYELADYSNLRETDI
B2: α1D-adrenergic receptor (α1D-AR): NQQ (protein)
parent chain: MTFRDLLSVSFEGPRPDSSAGGSSAGGGGGSAGGAAPSEGPAVGGVPGGAGGGGGVVGAGSGEDNRSSAGEPGSAGAGGDVNGTAAVGGLVVSAQGVGVGVFLAAFILMAVAGNLLVILSVACNRHLQTVTNYFIVNLAVADLLLSATVLPFSATMEVLGFWAFGRAFCDVWAAVDVLCCTASILSLCTISVDRYVGVRHSLKYPAIMTERKAAAILALLWVVALVVSVGPLLGWKEPVPPDERFCGITEEAGYAVFSSVCSFYLPMAVIVVMYCRVYVVARSTTRSLEAGVKRERGKASEVVLRIHCRGAATGADGAHGMRSAKGHTFRSSLSVRLLKFSREKKAAKTLAIVVGVFVLCWFPFFFVLPLGSLFPQLKPSEGVFKVIFWLGYFNSCVNPLIYPCSSREFKRAFLRLLRCQCRRRRRRRPLWRVYGHHWRASTSGLRQDCAPSSGDAPPGAPLALTALPDPDPEPPGTPEMQAPVASRRKPPSAFREWRLLGPFRRPTTQLRAKVSSLSHKIRAGGAQRAEAACAQRSEVEAVSLGVPHEVAEGATCQAYELADYSNLRETDI
B3: α1D-adrenergic receptor (α1D-AR): tunicamycin 5 μg/mL (protein)
parent chain: MTFRDLLSVSFEGPRPDSSAGGSSAGGGGGSAGGAAPSEGPAVGGVPGGAGGGGGVVGAGSGEDNRSSAGEPGSAGAGGDVNGTAAVGGLVVSAQGVGVGVFLAAFILMAVAGNLLVILSVACNRHLQTVTNYFIVNLAVADLLLSATVLPFSATMEVLGFWAFGRAFCDVWAAVDVLCCTASILSLCTISVDRYVGVRHSLKYPAIMTERKAAAILALLWVVALVVSVGPLLGWKEPVPPDERFCGITEEAGYAVFSSVCSFYLPMAVIVVMYCRVYVVARSTTRSLEAGVKRERGKASEVVLRIHCRGAATGADGAHGMRSAKGHTFRSSLSVRLLKFSREKKAAKTLAIVVGVFVLCWFPFFFVLPLGSLFPQLKPSEGVFKVIFWLGYFNSCVNPLIYPCSSREFKRAFLRLLRCQCRRRRRRRPLWRVYGHHWRASTSGLRQDCAPSSGDAPPGAPLALTALPDPDPEPPGTPEMQAPVASRRKPPSAFREWRLLGPFRRPTTQLRAKVSSLSHKIRAGGAQRAEAACAQRSEVEAVSLGVPHEVAEGATCQAYELADYSNLRETDI
B4: α1D-adrenergic receptor (α1D-AR): N82Q (protein)
parent chain: MTFRDLLSVSFEGPRPDSSAGGSSAGGGGGSAGGAAPSEGPAVGGVPGGAGGGGGVVGAGSGEDNRSSAGEPGSAGAGGDVNGTAAVGGLVVSAQGVGVGVFLAAFILMAVAGNLLVILSVACNRHLQTVTNYFIVNLAVADLLLSATVLPFSATMEVLGFWAFGRAFCDVWAAVDVLCCTASILSLCTISVDRYVGVRHSLKYPAIMTERKAAAILALLWVVALVVSVGPLLGWKEPVPPDERFCGITEEAGYAVFSSVCSFYLPMAVIVVMYCRVYVVARSTTRSLEAGVKRERGKASEVVLRIHCRGAATGADGAHGMRSAKGHTFRSSLSVRLLKFSREKKAAKTLAIVVGVFVLCWFPFFFVLPLGSLFPQLKPSEGVFKVIFWLGYFNSCVNPLIYPCSSREFKRAFLRLLRCQCRRRRRRRPLWRVYGHHWRASTSGLRQDCAPSSGDAPPGAPLALTALPDPDPEPPGTPEMQAPVASRRKPPSAFREWRLLGPFRRPTTQLRAKVSSLSHKIRAGGAQRAEAACAQRSEVEAVSLGVPHEVAEGATCQAYELADYSNLRETDI
B5: α1D-adrenergic receptor (α1D-AR): S-NQQ-C (protein)
parent chain: MTFRDLLSVSFEGPRPDSSAGGSSAGGGGGSAGGAAPSEGPAVGGVPGGAGGGGGVVGAGSGEDNRSSAGEPGSAGAGGDVNGTAAVGGLVVSAQGVGVGVFLAAFILMAVAGNLLVILSVACNRHLQTVTNYFIVNLAVADLLLSATVLPFSATMEVLGFWAFGRAFCDVWAAVDVLCCTASILSLCTISVDRYVGVRHSLKYPAIMTERKAAAILALLWVVALVVSVGPLLGWKEPVPPDERFCGITEEAGYAVFSSVCSFYLPMAVIVVMYCRVYVVARSTTRSLEAGVKRERGKASEVVLRIHCRGAATGADGAHGMRSAKGHTFRSSLSVRLLKFSREKKAAKTLAIVVGVFVLCWFPFFFVLPLGSLFPQLKPSEGVFKVIFWLGYFNSCVNPLIYPCSSREFKRAFLRLLRCQCRRRRRRRPLWRVYGHHWRASTSGLRQDCAPSSGDAPPGAPLALTALPDPDPEPPGTPEMQAPVASRRKPPSAFREWRLLGPFRRPTTQLRAKVSSLSHKIRAGGAQRAEAACAQRSEVEAVSLGVPHEVAEGATCQAYELADYSNLRETDI

Experiments:
[1] = cell-impermeable SNAP substrate BG-782 surface labelling; conditions: glycan lost; control: WT SNAP-α1D
[2] = confocal colocalisation with ER stain CytoPainter; conditions: glycan lost; control: WT SNAP-α1D
[3] = sucrose density gradient fractionation, PAGE NIR; conditions: glycan lost; control: WT SNAP-α1D
[4] = PAGE NIR of SNAP-labelled HEK293 lysate; conditions: glycan lost; control: WT SNAP-α1D
[5] = SNAP-Capture pull-down, MS/MS peptide coverage; conditions: glycan lost; control: WT SNAP-α1D
[6] = PAGE NIR after 16 hr tunicamycin; conditions: glycan lost; control: EtOH vehicle
[7] = dual SNAP/CLIP tag PAGE NIR; conditions: glycan lost; control: S-WT-C

Protein	localisation_or_trafficking, other: % change from SNAP alone [1]	localisation_or_trafficking, other: % total AUC in low-density (ER) peak [3]	other: full-length receptor biogenesis [4]	also measured
B1	decreases, 13.40 ± 4.65 vs 46.13 ± 5.61	changes, 46.33 vs 92.47	no change	localisation_or_trafficking, other: Pearson's coefficient [2]: no change, 0.70 ± 0.04 vs 0.72 ± 0.03
B2			abolishes, primarily expressed as a single, robust band of ~43 kDa in size	other: full-length receptor biogenesis [5]: abolishes
B3				other: full-length receptor biogenesis [6]: changes
B4	decreases, 9.49 ± 5.95 vs 46.13 ± 5.61	no change, 89.13 vs 92.47	no change	
B5				other: full-length receptor biogenesis [7]: abolishes
